± gives the standard deviation of the averaged measurements.
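Also: ATP exposure 15 min at 22 °C before imaging.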

The data set deals with ATP. The data set is described as follows: switch fluorescence ratio, 500 uM ATP over buffer (Cy3 cluster intensity, sum of 5 cycles each) (fold (ratio)); higher = stronger signal-on switching upon ATP binding; sequences stand for … in TCGTCGGCAGCGTCAGATGTGTATAAGAGACAGTTTTTTTTTTTTTTTTTTTTTTTTT…TC. Conditions: aptamer strand: ATP DNA aptamer (quencher-CACCTGGGGGAGTATTGCGGAGGAAGG + anchor), 100 nM annealed; ATP concentration: 500 uM. The method in brief: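 Switching-strand clusters labelled with Cy3 on a modified Illumina MiSeq flow-cell were annealed to 100 nM quencher-labelled ATP aptamer, imaged in selection buffer, and re-imaged after 15 min with 500 uM ATP at 22 °C. This was done over five cycles with NaOH stripping and re-annealing in between. The fluorescence ratio is summed target-cycle over summed buffer-cycle Cy3 intensity per cluster, averaged per switch-domain sequence, excluding clusters outside 100-1000 RFU.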
For ACTATGGTAA, the switch fluorescence ratio turned out to be 0.9704 ± 0.008.
For CAAAAGTAGA the value was 0.991 ± 0.036.
For AAGGGGTTCG the value was 1.05 ± 0.023; for ATGGTTTTAG, 0.993 ± 0.033.
On to ATCGGCGGGG, for which the switch fluorescence ratio was 0.995 ± 0.031.
Under GTTCATGGTA stands 0.99 ± 0.0028.
Under GGGGGTGAGT stands 1.02 ± 0.012; under AGATTCTCGA, 0.998 ± 0.011.
On to AAAATTATGG, for which the switch fluorescence ratio turned out to be 0.968 ± 0.02.
Consider AAGTTGACGG, for which the switch fluorescence ratio amounted to 0.985 ± 0.011.
For AAACAGAATG the value was 0.975 ± 0.014; for CGGTCGCTTG, 1.02 ± 0.032; for ACGGAGGGCT, 1.02 ± 0.015.
Under GGTCCTGTTT stands 0.994 ± 0.02; under GGGTAACTTT, 1.08 ± 0.07.
For AATAATCAGG the value was 0.9926 ± 0.0086; for GATGCAGTTC, 1.66 ± 0.053; for TCGTTTAGTG, 0.981 ± 0.018.
As for TAAGATTGTA, the switch fluorescence ratio worked out at 0.993 ± 0.032.
Regarding AGTTGCTTGG, the switch fluorescence ratio was 1.01 ± 0.041.
Under ATTCTGTAAT stands 1.01 ± 0.017; under TTGCGTGCCG, 0.98 ± 0.11.
For AGTGGCTTTG, the switch fluorescence ratio is 0.986 ± 0.019.
In the case of ATGCAGTATG, the switch fluorescence ratio came to 0.967 ± 0.025.
For TATCAAAAGA the value was 1.03 ± 0.016; for AGTGGGGAAT, 1.01 ± 0.049; for TGATTGAGGG, 0.9572 ± 0.0056.
Under GGTAGTTGCC stands 1.02 ± 0.034.
As for CAGGCAGGGT, the switch fluorescence ratio was 0.969 ± 0.035.
In the case of GATGGGTTTC, the switch fluorescence ratio was 0.987 ± 0.012.
As for CGGTCATACT, the switch fluorescence ratio is 1.21 ± 0.029.
Under GGGTGGAGGA stands 1.008 ± 0.0038; under TCGGGTTGAG, 1.01 ± 0.067; under CCAAGGGGGG, 1.11 ± 0.22.
For TGGGGTTCAC the value was 0.998 ± 0.018.
Under TTTTTGAGC stands 1.011 ± 0.0086; under GTTTTGTTTG, 0.9553 ± 0.0016.
On to TGCCCATGAT, for which the switch fluorescence ratio came to 0.963 ± 0.018.
Under TGCGATGACT stands 1.45 ± 0.65; under GATGTCGTTT, 1.02 ± 0.049; under GGTCAGGCGA, 0.989 ± 0.016.
Under GCTAGTCTGA stands 0.9954 ± 0.0019.
Under GGAAAGACCG stands 1 ± 0.012; under GGGGGATGTA, 0.948 ± 0.032; under ATTTAATTTT, 1.02 ± 0.019.
Turning to CAGCGCATTA, the switch fluorescence ratio amounted to 2.01 ± 0.11.
Regarding TTGAGAGGAT, the switch fluorescence ratio came to 0.972 ± 0.021.
Under AAGGGGTTCT stands 1.01 ± 0.016; under TTGATCCAGC, 0.9958 ± 0.0068; under TTTCGTATAC, 2.1 ± 0.041.
On to ATCATGGCAC, for which the switch fluorescence ratio was 1.04 ± 0.025.
For ATTAGGCGTG the value was 0.987 ± 0.01.
Under GCGGATGGTG stands 1.07 ± 0.08; under GGTATGTTTT, 0.978 ± 0.037.
Under ACTGATGTAC stands 1.09 ± 0.012; under GCCAGTCTTT, 1 ± 0.012.
On to AGTAGGTCGG, for which the switch fluorescence ratio was 0.987 ± 0.01.
In the case of CTTAAAGTAT, the switch fluorescence ratio was 0.9977 ± 0.0024.
As for CAATGTCTGG, the switch fluorescence ratio was found to be 1.008 ± 0.0027.
GGTAGAGCTG: the switch fluorescence ratio was determined as 1 ± 0.018.
As for GTGAGGACAA, the switch fluorescence ratio turned out to be 1.05 ± 0.036.
With GCAGTATCAC, the switch fluorescence ratio amounted to 1.05 ± 0.028.
Under TAGAGTAGTG stands 0.999 ± 0.05; under TTGAGTTTAA, 1.003 ± 0.0065; under GATATATTGT, 0.993 ± 0.035.
For AATATGTGGT the value was 0.972 ± 0.015; for TTTTGGCGTA, 1.04 ± 0.037; for TATTGATTGG, 0.9977 ± 0.0062.
For GATCGCTATC the value was 2.91 ± 0.39; for TTTAGAGCTT, 1.02 ± 0.024; for AGGTGATTAG, 0.986 ± 0.044.
For the sequence CAAGTGCCTG, the switch fluorescence ratio is 1.01 ± 0.025.
As to ACATCATAGC, the switch fluorescence ratio was determined as 1.048 ± 0.0076.
On to CCGCGGCGGG, for which the switch fluorescence ratio was found to be 1.04 ± 0.028.
Under CACTTACGTT stands 1.347 ± 0.012.
For TTCCGACTTA the value was 1.14 ± 0.19.
For ATGTAATAGT the value was 1.014 ± 0.0069.
On to AAATAATGAT, for which the switch fluorescence ratio was 1 ± 0.021.
Regarding CCCGGCGAGT, the switch fluorescence ratio was 1.08 ± 0.038.
For GCGGTATATG the value was 1.01 ± 0.027; for AAAAGGGTCT, 1.02 ± 0.024.
Under GGTATAGAGA stands 0.986 ± 0.051.
Under CAGTAAGTCT stands 1.05 ± 0.076; under GGGCAGCTGG, 0.981 ± 0.042.
Regarding GGAGTCGTTG, the switch fluorescence ratio was 0.968 ± 0.011.
Under TAGGGCAGGG stands 1 ± 0.0022; under TTTGATCTGC, 0.961 ± 0.031.
For TCCGCTTGA the value was 1.58 ± 0.047; for GGGTTCATGT, 1.006 ± 0.0027; for TTTGTTTCGA, 1.05 ± 0.11.
For CTAGGGTTAT the value was 1.006 ± 0.0025; for TTGTCATTTA, 0.992 ± 0.031; for AAAAAATTAT, 1.03 ± 0.087.
Take TGTAAAAAAA: the switch fluorescence ratio was determined as 1.04 ± 0.044.
For GAGGGGTGGG the value was 1.04 ± 0.076; for TTCGGTTGTA, 1.009 ± 0.0067; for TGTAAGCTAG, 1.017 ± 0.0066.
As to TATGTGTGCG, the switch fluorescence ratio worked out at 1.02 ± 0.017.
Under CGCCATTTTT stands 0.9822 ± 0.0022.
For TGCAACCTCA the value was 1.09 ± 0.043; for TGTGAAAAGT, 0.996 ± 0.028; for CTAATTGTAG, 0.9884 ± 0.0029.
Under TCACATTATT stands 1.04 ± 0.02.
Consider GAGGACTATT, for which the switch fluorescence ratio was determined as 0.999 ± 0.046.
With TTGGGAATTT, the switch fluorescence ratio came out at 0.975 ± 0.019.
For TGGACGAATA the value was 1.39 ± 0.29; for ACGCGACGG, 1.13 ± 0.018.
For GGCCTGGGTT the value was 0.967 ± 0.0098.
For TTTGGGGTTT the value was 1.07 ± 0.24; for ATAATAGTTG, 1.02 ± 0.018; for GGCCGAGGTC, 1.02 ± 0.013.
Turning to AAGTGTAAGG, the switch fluorescence ratio turned out to be 1.018 ± 0.0039.
Under TTAAGATGCT stands 0.997 ± 0.036; under ATAAGGTCGT, 1.02 ± 0.039.
For GTGGGCGGGC the value was 1.02 ± 0.093; for TTTTTGCGCT, 1.04 ± 0.047.
On to CAATGGAGGA, for which the switch fluorescence ratio stood at 1.011 ± 0.0058.
Under AAAGTAGTGT stands 1.024 ± 0.004; under CGGCATGGTG, 0.98 ± 0.02.
Consider CGTATGGGTG, for which the switch fluorescence ratio is 1.02 ± 0.04.

Values taken from the supplement of paper PMC10126150.
